The stoichiometry N is a count of units in the complex or per binding partner.

Experiment [1] has as its target Munia bornavirus 1 (MuBV-1) phosphoprotein oligomerisation domain (POD), residues 65 to 172 (munia bornavirus 1 (MuBV-1)). Briefly: SEC-SAXS. In general terms: Size exclusion chromatography separates by hydrodynamic size, large species first.
Experiment [2] has the same target. Briefly: crystal structure.
Experiment [3] has as its target Gaboon viper virus 1 (GaVV-1) phosphoprotein oligomerisation domain (POD), residues 67 to 178 (Gaboon viper virus 1 (GaVV-1)). Briefly: SEC-SAXS.
Experiment [4] has the same target. Briefly: crystal structure.

Regarding “Munia bornavirus 1 (MuBV-1) phosphoprotein oligomerisation domain (POD), residues 65 to 172 (domain or fragment)”, the stoichiometry N in experiment [1] and in experiment [2] was 4 throughout.
As to “Gaboon viper virus 1 (GaVV-1) phosphoprotein oligomerisation domain (POD), residues 67 to 178 (domain or fragment)”, the stoichiometry N in experiment [3] and in experiment [4] was 4 in each case.

The record behind these values is paper PMC9692295.
